Reference: publication PMC7510528 (Cell, 2020)

Molecular target: T1, RBD-Fc (RBD-SD1 part of SARS-CoV2-S1, amino acids 319-591, fused to the constant region of rabbit IgG1 heavy … (SARS-CoV-2 (reference sequence, …, UniProt P0DTC2)))
T1 construct: source: HEK293T, cell culture supernatant, immobilized onto plates via anti-rabbit IgG
Experiment: ELISA
Conditions: partners not purified

B1: HK CV07-202 (antibody, V domains shown)
VH: EVQLVESGGGLIQPGGSLRLSCAASGFTVSSNYMSWVRQAPGKGLEWISVIYSGGSTFYADSVKGRFTISRDNSKNTLYLQMNSLRAEDTAVYYCARDLYYYGMDVWGQGTTVTVSS
VL: DIQLTQSPSFLSASVGDRVTITCRASQGISSYLAWYQQKPGKAPKLLIYAASTLQSGVPSRFSGSGSGTEFTLTISSLQPEDFATYYCQQLNNYSVTFGGGTKVEIK
  binding result: binds
